Like-named read-outs stand apart in the source and are kept apart here.
What was measured:
[1] = Stability test in PBS (iTLC); assay type: physicochemical; details: 37 °C, up to 7 days, ~5 MBq in 250 µL added to 4.75 mL, iTLC-SG, 0.5 M citrate pH 5.5, gamma counter
Description: (§1) Radiolabeling was performed by adding up to 200 MBq of the ^153Sm radiolabeling solution to 20 nmol of the DOTA-TATE precursor dissolved in 0.15 M NaOAc buffer (pH 4.7) in a total reaction volume of 1 mL. The reaction vial was placed in a Thermomixer C (Eppendorf) to stir (500 rpm) and the mixture was heated to 95 °C for 15 min. After incubation, the radiolabeling yield was evaluated using thin-layer chromatography. An amount of 1–2 µL of the reaction mixture was spotted on a glass microfiber chromatography paper strip impregnated with silica gel (iTLC-SG, Agilent Technologies, Diegem, Belgium) that was eluted with a 0.5 M citrate solution (pH 5.5). After elution, the TLC papers were cut in half and the activity of the bottom and top part of the TLC paper was counted for 2 min each using an automated gamma counter.
(§2) After 1 h, 3 days, 5 days and 7 days, a 5 µL sample was spotted on the TLC system described above to identify the intact fraction.

[2] = Shelf life in radiolabeling buffer at room temperature (iTLC); assay type: physicochemical; details: radiolabeling buffer (0.15 M NaOAc, pH 4.7), up to 7 days, iTLC-SG, gamma counter
Description: as §1, §2

[3] = system: CA20948 cells; experiment: MTS viability assay; assay type: cell-based, rat; details: 4 h treatment, MTS after 4 days, relative to untreated cells, mean ± SD
Description: Rat pancreatic cancer cell line CA20948 was used given the somatostatin receptor 2 (SSTR2) overexpression as it is found in many human neuroendocrine tumors. Cells were grown in DMEM High Glucose and Pyruvate medium (Gibco 41966029) supplemented with 10% fetal bovine serum (Gibco 10270106) and 100 U/mL penicillin-streptomycin (Sigma-Aldrich P4333) and were maintained in a humidified incubator at 37 °C with 5% CO2 supply. All in vitro results were obtained from a minimum of three replicates per condition.
A total of 10,000 cells were seeded per well into a 96-well plate (31,250 cells/cm²). […] After 4 h incubation at 37 °C in 5% CO2, cells were washed and new medium was added. Then, after 4 days, MTS reagent was prepared according to the manufacturer’s instructions and added to the cells. Absorbance was measured at 490 nm using the BioTek Synergy H1 reader (Agilent). Cell viability was obtained as the ratio of the absorbance of a sample well to the average absorbance of untreated (0 MBq/mL) wells, after subtraction of the background signal of wells containing MTS reagent without cells. Statistical significance (p < 0.05) was determined using linear models.

[4] = Ex vivo biodistribution in healthy BALB/c mice; set-up: species or system mouse; details: mouse, iv; for tissue uptake dose at 1 h / tissue uptake dose at 24 h / tissue uptake dose at 72 h / SUV at 1 h / SUV at 4 h / SUV at 24 h / SUV at 72 h / tissue uptake dose at 4 h: total radioactivity
Description: Quantification of activity was performed with an automated gamma counter equipped with a 3-in NaI(Tl) detector coupled to a multichannel analyzer (2480 Wizard^2, Perkin Elmer, Zaventem, Belgium). The results were corrected for background signal, physical decay during counting and detector dead time.
All animal experiments were performed in compliance with the Ethical Committee Animal Studies of Medanex Clinic (EC MxCl 2020-163 and EC MxCl 2021-173), the Belgian laboratory animal legislation and the European Communities Council Directive of 22 September 2010 (2010/63/EU). Male BALB/c and NMRI nude mice were purchased from Janvier (Bio Services, Uden, The Netherlands) and housed in ventilated cages under standard laboratory conditions (12 h light/dark cycle) at the animal facility of SCK CEN. All animals had access to food and water ad libitum.
Additionally, similar biodistribution studies were performed with free (unlabeled) [^153Sm]SmCl3 to identify the organs with ^153Sm accumulation in case of release from the complex. […] The mice were sacrificed by an overdose pentobarbital (200 µL of 60 mg/mL) 1, 4, 24 and 72 h post-injection (p.i.) (n = 3–4 per time point). Blood was collected via cardiac puncture. Organs of interest were collected in tared tubes and weighed. The activity in the different organs was measured in the gamma counter. For the calculation of the total activity in the blood, bone and muscle, the masses were assumed to be, respectively, 7, 12 and 40% of the total body mass. Data were expressed as a percentage of injected activity (%IA) and standardized uptake value (SUV). %IA was calculated as (counts per min (cpm) in organ)/(IA converted to cpm) × 100. SUV was calculated as (activity in cpm in organ/weight of organ in g)/(IA/total body weight in g).

[5] = male, BALB/c, bone, read-out: Bone %IA
[6] = male, BALB/c, bone, read-out: Bone SUV
[7] = male, BALB/c, in vivo, read-out: Excreted %IA
[8] = male, BALB/c, intestines, read-out: Intestines %IA
[9] = male, BALB/c, kidneys, read-out: Kidneys SUV
[10] = male, BALB/c, liver, read-out: Liver SUV
[11] = male, BALB/c, muscle, read-out: Muscle %IA
[12] = male, BALB/c, pancreas, read-out: Pancreas %IA
[13] = male, BALB/c, spleen, read-out: Spleen %IA
[14] = male, BALB/c, spleen, read-out: Spleen SUV

Which results are given for `C[C@@H](O)[C@H](NC(=O)[C@@H]1CSSC[C@H](NC(=O)[C@@H](Cc2ccccc2)NC(=O)CN2CCN(CC(=O)O)CCN(CC(=O)O)CCN(CC(=O)O)CC2)C(=O)N[C@@H](Cc2ccc(O)cc2)C(=O)N[C@H](Cc2c[nH]c3ccccc23)C(=O)N[C@@H](CCCCN)C(=O)N[C@@H]([C@@H](C)O)C(=O)N1)C(=O)O` [[^153Sm]Sm-DOTA-TATE, metal not drawn]?
radiochemical purity (intact fraction) [1]: > 99%; radiochemical purity (intact fraction) [2]: > 98%; cell viability ([3]; 1.25 MBq/mL): significantly lowered viability; cell viability, reduced down to ([3]; lowest viability over 0-10 MBq/mL): 48 ± 6%; tissue uptake dose at 1 h ([4]; male, BALB/c, blood, read-out: Blood %IA): 0.7 ± 0.3 %ID; tissue uptake dose at 1 h [4, 5]: 0.8 ± 0.4 %ID; tissue uptake dose at 24 h [4, 5]: 0.7 ± 0.1 %ID; tissue uptake dose at 72 h [4, 5]: 0.6 ± 0.1 %ID; SUV at 1 h [4, 6]: 0.1 SUV; SUV at 4 h [4, 6]: 0.1 SUV; SUV at 24 h [4, 6]: 0.1 SUV; SUV at 72 h [4, 6]: 0.1 SUV; SUV at 1 h ([4]; male, BALB/c, heart, read-out: Heart SUV): 0.1 SUV; tissue uptake dose at 1 h [4, 7]: 82 ± 4.8 %ID; tissue uptake dose at 4 h [4, 7]: 90.2 ± 0.7 %ID; tissue uptake dose at 24 h [4, 7]: 96.6 ± 0.4 %ID; tissue uptake dose at 1 h [4, 8]: 0.6 ± 0.1 %ID; tissue uptake dose at 4 h [4, 8]: 0.5 %ID; tissue uptake dose at 72 h [4, 8]: 0.1 %ID; tissue uptake dose at 4 h ([4]; male, BALB/c, kidneys, read-out: Kidneys %IA): 3.2 ± 0.1 %ID; SUV at 24 h [4, 9]: 0.4 ± 0.1 SUV; SUV at 72 h [4, 9]: 0.1 SUV; tissue uptake dose at 4 h ([4]; male, BALB/c, liver, read-out: Liver %IA): 2.5 ± 0.8 %ID; SUV at 1 h [4, 10]: 0.4 ± 0.1 SUV; SUV at 24 h [4, 10]: 0.3 SUV; tissue uptake dose at 1 h ([4]; male, BALB/c, lungs, read-out: Lungs %IA): 0.1 %ID; SUV at 4 h ([4]; male, BALB/c, lungs, read-out: Lungs SUV): 0.1 SUV; tissue uptake dose at 4 h [4, 11]: 1.1 ± 0.5 %ID; tissue uptake dose at 24 h [4, 11]: 0.1 %ID; tissue uptake dose at 72 h [4, 11]: 0.1 %ID; SUV at 1 h ([4]; male, BALB/c, muscle, read-out: Muscle SUV): 0.6 ± 0.3 SUV; tissue uptake dose at 1 h [4, 12]: 0.1 %ID; tissue uptake dose at 4 h [4, 12]: 0.1 %ID; SUV at 4 h ([4]; male, BALB/c, pancreas, read-out: Pancreas SUV): 0.1 SUV; tissue uptake dose at 1 h [4, 13]: 0.3 ± 0.1 %ID; tissue uptake dose at 4 h [4, 13]: 0.3 %ID; tissue uptake dose at 24 h [4, 13]: 0.3 ± 0.1 %ID; tissue uptake dose at 72 h [4, 13]: 0.1 %ID; SUV at 24 h [4, 14]: 0.9 ± 0.3 SUV; SUV at 72 h [4, 14]: 0.3 ± 0.1 SUV; tissue uptake dose at 4 h ([4]; male, BALB/c, stomach, read-out: Stomach %IA): 0.1 ± 0.1 %ID; SUV at 1 h ([4]; male, BALB/c, whole blood, read-out: Blood SUV): 0.1 SUV; tissue uptake dose at 4 h ([4]; blood, 4 h p.i., healthy male BALB/c mice, ~2-3 MBq i.v., mean ± SD, n = 3-4, read-out: Blood %IA): 0.2 %ID; tissue uptake dose at 4 h ([4]; bone, 4 h p.i., healthy male BALB/c mice, ~2-3 MBq i.v., mean ± SD, n = 3-4, read-out: Bone %IA): 0.6 ± 0.2 %ID; Blood %IA ([4]; in vivo): 0.0 ± 0.0 %IA; Blood SUV ([4]; in vivo): 0.0 ± 0.0; Brain %IA ([4]; in vivo): 0.0 ± 0.0 %IA; Brain SUV ([4]; in vivo): 0.0 ± 0.0; Heart %IA ([4]; in vivo): 0.0 ± 0.0 %IA; Heart SUV ([4]; in vivo): 0.0 ± 0.0; Lungs %IA ([4]; in vivo): 0.0 ± 0.0 %IA; Lungs SUV ([4]; in vivo): 0.0 ± 0.0; Muscle SUV ([4]; in vivo): 0.0 ± 0.0; Pancreas %IA ([4]; in vivo): 0.0 ± 0.0 %IA; Pancreas SUV ([4]; in vivo): 0.0 ± 0.0; Stomach %IA ([4]; in vivo): 0.0 ± 0.0 %IA; tissue uptake dose at 72 h ([4]; in vivo, 72 h p.i., healthy male BALB/c mice, ~2-3 MBq i.v., mean ± SD, n = 3-4, read-out: Excreted %IA): 97.8 ± 0.2 %ID; tissue uptake dose at 24 h ([4]; intestines, 24 h p.i., healthy male BALB/c mice, ~2-3 MBq i.v., mean ± SD, n = 3-4, read-out: Intestines %IA): 0.2 %ID; tissue uptake dose at 24 h ([4]; kidneys, 24 h p.i., healthy male BALB/c mice, ~2-3 MBq i.v., mean ± SD, n = 3-4, read-out: Kidneys %IA): 0.7 ± 0.2 %ID; tissue uptake dose at 72 h ([4]; kidneys, 72 h p.i., healthy male BALB/c mice, ~2-3 MBq i.v., mean ± SD, n = 3-4, read-out: Kidneys %IA): 0.2 %ID; SUV at 4 h ([4]; liver, 4 h p.i., healthy male BALB/c mice, ~2-3 MBq i.v., mean ± SD, n = 3-4, read-out: Liver SUV): 0.5 ± 0.2 SUV; tissue uptake dose at 24 h ([4]; liver, 24 h p.i., healthy male BALB/c mice, ~2-3 MBq i.v., mean ± SD, n = 3-4, read-out: Liver %IA): 1.6 ± 0.2 %ID; tissue uptake dose at 72 h ([4]; liver, 72 h p.i., healthy male BALB/c mice, ~2-3 MBq i.v., mean ± SD, n = 3-4, read-out: Liver %IA): 1.2 ± 0.2 %ID; SUV at 72 h ([4]; liver, 72 h p.i., healthy male BALB/c mice, ~2-3 MBq i.v., mean ± SD, n = 3-4, read-out: Liver SUV): 0.2 SUV; SUV at 1 h ([4]; lungs, 1 h p.i., healthy male BALB/c mice, ~2-3 MBq i.v., mean ± SD, n = 3-4, read-out: Lungs SUV): 0.2 SUV; SUV at 4 h ([4]; muscle, 4 h p.i., healthy male BALB/c mice, ~2-3 MBq i.v., mean ± SD, n = 3-4, read-out: Muscle SUV): 0.2 ± 0.1 SUV; SUV at 1 h ([4]; pancreas, 1 h p.i., healthy male BALB/c mice, ~2-3 MBq i.v., mean ± SD, n = 3-4, read-out: Pancreas SUV): 0.2 SUV; SUV at 1 h ([4]; spleen, 1 h p.i., healthy male BALB/c mice, ~2-3 MBq i.v., mean ± SD, n = 3-4, read-out: Spleen SUV): 0.8 ± 0.2 SUV; SUV at 4 h ([4]; spleen, 4 h p.i., healthy male BALB/c mice, ~2-3 MBq i.v., mean ± SD, n = 3-4, read-out: Spleen SUV): 0.8 ± 0.2 SUV; tissue uptake dose at 1 h ([4]; stomach, 1 h p.i., healthy male BALB/c mice, ~2-3 MBq i.v., mean ± SD, n = 3-4, read-out: Stomach %IA): 0.2 %ID; time without leaching of 153Sm from the chelator: > 7 days

From PMC9785812 (Pharmaceutics, 2022)
